Substitutions are numbered along the chain they refer to.
Assay: High throughput cellobiose assay: fold improvement in cellobiase activity of CelA variants over a control enzyme (Tables 2A-2D, 3, 5, 6, 7)
Assay type: biochemical
Conditions: 3.3 g/l cellobiose, 55° C. and pH 6.0

B1: 111 (protein)
chain: STAIAQEGAAPAAILHPEKWPRPATQRLIDPAVEKRVDALLKQLSVEEKVGQVIQGDIGTITPEDLRKYPLGSILAGGNSGPNGDDRAPPKEWLDLADAFYRVSLEKRPGHTPIPVLFGIDAVHGHGNIGSATIFPHNIALGATRDPELLRRIGEVTAVEMAATGIDWTFAPALSVVRDDRWGRTYEGFSEDPEIVAAYSAAIVEGVQGKFGSKDFMAPGRIVASAKHFLADGGTDQGRDQGDARISEDELIRIHNAGYPPAIDAGVLTVMASFSSWQGIKHHGHKQLLTDVLKGQMGFNGFIVGDWNAHDQVPGCTKFNCPTSLIAGLDMYMAADSWKQLYENTLAQVKDGTIPMARLDDAVRRILRVKVLAGLFEKPAPKDRPGLPGLETLGSPEHRAVGREAVRKSLVLLKNDKGTLPLSPKARVLVAGDGADNIGKQSGGWTISWQGTGNRNDEFPGATSILGGIRDAVADAGGSVEFDVAGQYKTKPDVAIVVFGEEPYAEFQGDVETLEYQPDQKQDLALLKKLKDQGIPVVAVFLSGRPMWVNPELNASDAFVAAWLPGTEGGGVADVLFTDKAGKVQHDFAGKLSYSWPRTAAQTTVNRGDADYNPLFAYGYGLTYKDKSKVGTLPEESGVPAEARQNAGIYFR
Fold improvement over Control Variant No. 5 from Table 2A: ++ (++ = 1.1 to 6 fold improvement over control Variant No. 2)

B2: 110 (protein)
chain: STAIAQEGAAPAAILHPEKWPRPATQRLIDPAVEKRVDALLKQLSVEEKVGQVIQGDIGTITPEDLRKYPLGSILAGGNSGPNGDDRAPPKEWLDLADAFYRVSLEKRPGHTPIPVLFGIDAVHGHGNIGSATIFPHNIALGATRDPELLRRIGEVTAVEMAATGIDWTFAPALSVVRDDRWGRTYEGFSEDPEIVAAYSAAIVEGVQGKFGSKDFMAPGRIVASAKHFLADGGTDQGRDQGDARISEDELIRIHNAGYPPAIDAGVLTVMASFSSWQGIKHHGHKQLLTDVLKGQMGFNGFIVGDWNAHDQVPGCTKFNCPTSLIAGLDMYMAADSWKQLYENTLAQVKDGTIPMARLDDAVRRILRVKVLAGLFEKPAPKDRPGLPGLETLGSPEHRAVGREAVRKSLVLLKNDKGTLPLSPKARVLVAGDGADNIGKQSGGWTISWQGTGNRNDEFPGATSILGGIRDAVADAGGSVEFDVAGQYKTKPDVAIVVFGEEPYAEFQGDVETLEYQPDQKQDLALLKKLKDQGIPVVAVFLSGRPMWVNPELNASDAFVAAWLPGTEGGGVADVLFTDKAGKVQHDFAGKLSYSWPRTAAQTTVNRGDADYNPLFAYGYGLTYKDKSKVGTLPEESGVPAE
Fold improvement over Control Variant No. 5 from Table 2A: ++ (++ = 1.1 to 6 fold improvement over control Variant No. 2)

B3: 112 (protein)
chain: STAIAQEGAAPAAILHPEKWPRPATQRLIDPAVEKRVDALLKQLSVEEKVGQVIQGDIGTITPEDLRKYPLGSILAGGDSGPNGDDRAPPKEWLDLADAFYRVSLEKRPGHTPIPVLFGIDAVHGHGKIGSATIFPHNIALGMTRDPELLRRIGEVTAEEMAATGIDWTFAPCLSVVRDDRWGRTYEGFSEDPEIVAAYSAAIVEGVQGKFGSKDFMAPGRIVASAKHFLADGGTDQGRDQGDARISEDELIRIHNAGYPPAIDAGVLTVMASFSSWQGIKHHGHKQLLTDVLKGQMGFNGFIVGDWNAHDQVPGCTKFNCPTSLIAGLDMYMAADSWKQLYENTLAQVKDGTIPMARLDDAVRRILRVKVLAGLFEKPAPKDRPGLPGLETLGSPEHRAVGREAVRKSLVLLKNDKGTLPLSPKARVLVAGDGADNIGKQSGGWTISWQGTGNRNDEFPGATSILGGIRDAVADAGGSVEFDVAGQYKTKPDVAIVVFGEEPYAEFQGDVETLEYQPDQKQDLALLKKLKDQGIPVVAVFLSGRPMWVNPELNASDAFVAAWLPGTEGGGVADVLFTDKAGKVQHDFAGKLSYSWPRTAAQTTVNRGDADYNPLFAYGYGLTYKDKSKVGTLPEESGVPAEARQNAGIYFRAGALRLPGRFL
Fold improvement over Control Variant No. 5 from Table 2A: +++ (+++ = 6 to 13 fold improvement over control Variant No. 2)

B4: 114 (protein)
chain: B3 chain with A97T, F211Y, Q508R
Fold improvement over Control Variant No. 5 from Table 2A: +++ (+++ = 6 to 13 fold improvement over control Variant No. 2)

B5: 122 (protein)
chain: B3 chain with M143A, C173A, A201P, F211Y, P219V, S225C
Fold improvement over Control Variant No. 5 from Table 2A: +++ (+++ = 6 to 13 fold improvement over control Variant No. 2)

B6: 125 (protein)
chain: B3 chain with D79N, K128N, M143A, E159V, C173A, A201P, I222S, S225C
Fold improvement over Control Variant No. 5 from Table 2A: +++ (+++ = 6 to 13 fold improvement over control Variant No. 2)

B7: 115 (protein)
chain: B3 chain with M143A, E159V, A163T, A201P, F211Y, S225C, Q487R, A562P
Fold improvement over Control Variant No. 5 from Table 2A: ++ (++ = 1.1 to 6 fold improvement over control Variant No. 2)

B8: 133 (protein)
chain: B3 chain with F135L, E159V, A162T, A198S, P219V
Fold improvement over Control Variant No. 5 from Table 2A: ++ (++ = 1.1 to 6 fold improvement over control Variant No. 2)

B9: 118 (protein)
chain: B3 chain with E159V, A162T, C173A, A198S, F211Y, I222S, S225C
Fold improvement over Control Variant No. 5 from Table 2A: +++ (+++ = 6 to 13 fold improvement over control Variant No. 2)

B10: 127 (protein)
chain: B3 chain with K128N, M143A, D146S, E159V, C173A, A201P, F211Y, I222S, S225C
Fold improvement over Control Variant No. 5 from Table 2A: +++ (+++ = 6 to 13 fold improvement over control Variant No. 2)

B11: 119 (protein)
chain: B3 chain with D79N, K128N, M143A, E159Q, C173A, A201P, F211Y, S225C
Fold improvement over Control Variant No. 5 from Table 2A: +++ (+++ = 6 to 13 fold improvement over control Variant No. 2)

B12: 126 (protein)
chain: B3 chain with K128N, E159V, A162T, C173A, A201P, S225C, Q585R
Fold improvement over Control Variant No. 5 from Table 2A: ++ (++ = 1.1 to 6 fold improvement over control Variant No. 2)

B13: 132 (protein)
chain: B3 chain with K91Q, M143A, D146S, E159V, C173A, A201P, F211Y, I222A, S225C
Fold improvement over Control Variant No. 5 from Table 2A: +++ (+++ = 6 to 13 fold improvement over control Variant No. 2)

B14: 129 (protein)
chain: B3 chain with K128N, M143A, A162T, C173A, A201P, S225C, I535V
Fold improvement over Control Variant No. 5 from Table 2A: +++ (+++ = 6 to 13 fold improvement over control Variant No. 2)

B15: 120 (protein)
chain: B3 chain with K128N, M143A, E159V, A162T, C173A, A198S, L663P
Fold improvement over Control Variant No. 5 from Table 2A: +++ (+++ = 6 to 13 fold improvement over control Variant No. 2)

B16: 123 (protein)
chain: B3 chain with E159V, A162T, C173A, A201P, F211Y, P219V
Fold improvement over Control Variant No. 5 from Table 2A: ++ (++ = 1.1 to 6 fold improvement over control Variant No. 2)

B17: 131 (protein)
chain: B3 chain with D79N, M143A
Fold improvement over Control Variant No. 5 from Table 2A: ++ (++ = 1.1 to 6 fold improvement over control Variant No. 2)

B18: 113 (protein)
chain: B3 chain with D79N, E159Q, C173A, A201P, F211Y, S225C
Fold improvement over Control Variant No. 5 from Table 2A: +++ (+++ = 6 to 13 fold improvement over control Variant No. 2)

B19: 116 (protein)
chain: B3 chain with M143A, E159V, A162T, C173A, F211Y, S225C, K625Q
Fold improvement over Control Variant No. 5 from Table 2A: +++ (+++ = 6 to 13 fold improvement over control Variant No. 2)

B20: 130 (protein)
chain: B3 chain with A24V, D79N, K128N, C173A, A201P, F211Y, I222S, S225C
Fold improvement over Control Variant No. 5 from Table 2A: +++ (+++ = 6 to 13 fold improvement over control Variant No. 2)

B21: 124 (protein)
chain: B3 chain with K128N, M143A, D146S, C173A, A201P, F211Y, S225C, K339R
Fold improvement over Control Variant No. 5 from Table 2A: +++ (+++ = 6 to 13 fold improvement over control Variant No. 2)

B22: 128 (protein)
chain: B3 chain with C173A, A201P, F211Y, S225C
Fold improvement over Control Variant No. 5 from Table 2A: +++ (+++ = 6 to 13 fold improvement over control Variant No. 2)

B23: 121 (protein)
chain: B3 chain with D79N, K128N, M143A, D146S, E159V, A162T, A201P
Fold improvement over Control Variant No. 5 from Table 2A: ++ (++ = 1.1 to 6 fold improvement over control Variant No. 2)
